Laboratory results from patent US20030220250A1.

Target: Tie-2 tyrosine kinase receptor on HUVECs (human) (UniProt Q02763)
Test: cell-based or functional assay

Sequence of UniProt Q02763 (Q02763 23-1124): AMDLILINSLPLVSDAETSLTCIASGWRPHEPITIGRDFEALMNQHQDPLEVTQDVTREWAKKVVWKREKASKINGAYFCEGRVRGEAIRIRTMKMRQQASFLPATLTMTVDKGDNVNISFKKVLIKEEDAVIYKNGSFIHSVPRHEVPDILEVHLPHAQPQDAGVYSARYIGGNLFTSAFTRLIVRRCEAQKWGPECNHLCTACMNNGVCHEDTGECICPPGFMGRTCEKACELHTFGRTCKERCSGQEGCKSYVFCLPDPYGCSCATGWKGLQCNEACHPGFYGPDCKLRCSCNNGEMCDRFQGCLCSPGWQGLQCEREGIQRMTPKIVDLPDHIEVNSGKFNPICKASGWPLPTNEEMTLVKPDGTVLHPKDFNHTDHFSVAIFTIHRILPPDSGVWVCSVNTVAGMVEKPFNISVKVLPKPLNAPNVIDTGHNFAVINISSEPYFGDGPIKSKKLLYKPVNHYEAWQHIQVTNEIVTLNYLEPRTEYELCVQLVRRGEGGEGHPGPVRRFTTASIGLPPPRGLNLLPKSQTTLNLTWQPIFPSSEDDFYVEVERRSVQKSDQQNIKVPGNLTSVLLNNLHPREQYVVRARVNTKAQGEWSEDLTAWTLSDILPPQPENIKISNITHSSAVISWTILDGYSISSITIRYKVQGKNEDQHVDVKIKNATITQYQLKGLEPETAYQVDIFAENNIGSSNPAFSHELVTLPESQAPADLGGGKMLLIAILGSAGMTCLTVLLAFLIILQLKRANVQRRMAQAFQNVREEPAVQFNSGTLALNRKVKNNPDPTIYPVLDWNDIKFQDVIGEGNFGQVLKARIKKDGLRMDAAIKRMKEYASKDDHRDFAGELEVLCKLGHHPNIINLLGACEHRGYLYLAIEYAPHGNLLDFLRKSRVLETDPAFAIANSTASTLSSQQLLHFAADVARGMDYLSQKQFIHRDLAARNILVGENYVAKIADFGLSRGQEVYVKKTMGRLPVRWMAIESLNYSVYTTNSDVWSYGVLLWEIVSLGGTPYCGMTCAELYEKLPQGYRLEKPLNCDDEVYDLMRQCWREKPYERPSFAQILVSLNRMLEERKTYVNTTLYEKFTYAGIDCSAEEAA

Tie-2 phosphorylation in HUVECs after 48 h transwell co-culture (Tie-2 immunoprecipitation, anti-phosphotyrosine Western blot, densitometry), versus co-culture with pcDNA-transfected HT29 cells: 2 fold
Substance: Angiopoietin-1 secreted by HT29 human colon cancer cells stably transfected with full-length Ang-1 cDNA in pcDNA3.1 (from UniProt Q15389 16-498) (ligand)
